According to PMC6754583:

Target: full-length von Willebrand factor (VWF) dimer, hetero-bifunctional construct (UniProt P04275)
Test: magnetic tweezers single-molecule force spectroscopy

full-length von Willebrand factor (VWF) dimer, hetero-bifunctional construct (from UniProt P04275 764-2813; P04275 764-2813) (natural protein)
mean dwell time between stem transitions (fits to individual datasets): 0.28 s | mean dwell time between stem transitions (global fit): 0.28 s | midpoint force F1/2 of stem opening: 1 pN
